Test results reported in the supplement of paper PMC9112550, “Optimization of the antimicrobial peptide Bac7 by deep mutational scanning” (BMC Biology, 2022).

System: Escherichia coli TOP10
Experiment: shrunken log2 fold change of peptide-encoding DNA abundance (4.5 h post-induction vs induction); higher = less antimicrobial activity (less host growth inhibition)
Conditions: time post-induction: 4.5 h; library: site-saturation at positions 5, 18, 19, 20
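Also: peptides expressed intracellularly from a pBAD plasmid library in pooled LB shake-flask culture, induced with 0.3% L-arabinose, DNA abundance read by NGS, three biological replicates, DESeq2 with apeglm shrinkage.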

Sequence | shrunken log2 fold change
RRIRSRPPRLPRPRPRPVPQPRP | 0.0741
RRIRTRPPRLPRPRPRPSSHPRP | -0.669
RRIRVRPPRLPRPRPRPMRWPRP | 0.0506
RRIRARPPRLPRPRPRPHSAPRP | -0.0202
RRIRVRPPRLPRPRPRPIADPRP | 0.0367
RRIRLRPPRLPRPRPRPVWWPRP | 0.88
RRIRPRPPRLPRPRPRPSQDPRP | -0.334
RRIRTRPPRLPRPRPRPIIWPRP | -0.0836
RRIRVRPPRLPRPRPRPTWCPRP | 0.216
RRIRKRPPRLPRPRPRPYSHPRP | -0.134
RRIRMRPPRLPRPRPRPDWAPRP | 0.469
RRIRDRPPRLPRPRPRPDEEPRP | -0.00164
RRIRYRPPRLPRPRPRPVRFPRP | -0.0685
RRIRCRPPRLPRPRPRPDFFPRP | 0.035
RRIRIRPPRLPRPRPRPMWLPRP | -0.233
RRIRLRPPRLPRPRPRPPHYPRP | 0.0636
RRIRWRPPRLPRPRPRPEEEPRP | 0.00738
RRIRPRPPRLPRPRPRPWWLPRP | -0.0379
RRIRYRPPRLPRPRPRPQLMPRP | -0.509
RRIRVRPPRLPRPRPRPYRWPRP | -0.355
RRIRYRPPRLPRPRPRPKQKPRP | -0.0531
RRIRHRPPRLPRPRPRPNMGPRP | -0.0579
RRIRRRPPRLPRPRPRPALHPRP | 0.651

Sequence | shrunken log2 fold change
RRIRPRPPRLPRPRPRPFQYPRP | -0.179
RRIRARPPRLPRPRPRPWCDPRP | 0.00114
RRIRVRPPRLPRPRPRPGLPPRP | 0.113
RRIRGRPPRLPRPRPRPQSGPRP | 0.0868
RRIRFRPPRLPRPRPRPWRIPRP | -0.0447
RRIRVRPPRLPRPRPRPVVGPRP | 0.126
RRIRIRPPRLPRPRPRPLTFPRP | -0.173
RRIRQRPPRLPRPRPRPYVEPRP | -0.537
RRIRDRPPRLPRPRPRPFQEPRP | -0.137
RRIRVRPPRLPRPRPRPMQKPRP | 0.533
RRIRDRPPRLPRPRPRPGGRPRP | 0.569
RRIRWRPPRLPRPRPRPFQLPRP | -0.316
RRIRQRPPRLPRPRPRPRPMPRP | 0.303
RRIRARPPRLPRPRPRPEGCPRP | 1.31
RRIRVRPPRLPRPRPRPPPCPRP | 0.358
RRIRYRPPRLPRPRPRPIYEPRP | 0.0166
RRIRPRPPRLPRPRPRPPTCPRP | 0.051
RRIRCRPPRLPRPRPRPCKDPRP | -0.142
RRIRERPPRLPRPRPRPAQRPRP | 0.324
RRIRCRPPRLPRPRPRPGAFPRP | 0.138
RRIRTRPPRLPRPRPRPMLQPRP | 0.00738
RRIRKRPPRLPRPRPRPGSPPRP | 0.166
RRIRKRPPRLPRPRPRPWHDPRP | -0.406

Sequence | shrunken log2 fold change
RRIRTRPPRLPRPRPRPPYYPRP | -0.535
RRIRGRPPRLPRPRPRPLWLPRP | 0.574
RRIRVRPPRLPRPRPRPTYYPRP | -0.315
RRIRMRPPRLPRPRPRPSIPPRP | -0.316
RRIRPRPPRLPRPRPRPYIIPRP | -0.455
RRIRQRPPRLPRPRPRPHQEPRP | -0.00692
RRIRRRPPRLPRPRPRPMGQPRP | 0.267
RRIRKRPPRLPRPRPRPILRPRP | -0.0475
RRIRFRPPRLPRPRPRPMAFPRP | -0.126
RRIRNRPPRLPRPRPRPQPLPRP | -0.102
RRIRWRPPRLPRPRPRPLIHPRP | -0.0681
RRIRQRPPRLPRPRPRPPQHPRP | 0.718
RRIRIRPPRLPRPRPRPDCAPRP | -0.0601
RRIRARPPRLPRPRPRPNHRPRP | 0.00751
RRIRTRPPRLPRPRPRPGPGPRP | 0.484
RRIRARPPRLPRPRPRPTRLPRP | 0.545
RRIRTRPPRLPRPRPRPPKTPRP | 0.142
RRIRGRPPRLPRPRPRPYVEPRP | -0.00776
RRIRGRPPRLPRPRPRPGEFPRP | 0.329
RRIRFRPPRLPRPRPRPLHIPRP | -0.7
RRIRWRPPRLPRPRPRPACKPRP | -0.0942
RRIRNRPPRLPRPRPRPPPRPRP | 1.47
RRIRRRPPRLPRPRPRPCYMPRP | -0.191

Sequence | shrunken log2 fold change
RRIRGRPPRLPRPRPRPKPMPRP | 0.419
RRIRRRPPRLPRPRPRPKSKPRP | 0.165
RRIRMRPPRLPRPRPRPYDCPRP | -0.113
RRIRLRPPRLPRPRPRPRGEPRP | 0.207
RRIRDRPPRLPRPRPRPYFCPRP | -0.177
RRIRDRPPRLPRPRPRPKDPPRP | -0.00415
RRIRFRPPRLPRPRPRPYVDPRP | -0.00112
RRIRDRPPRLPRPRPRPTAIPRP | 0.394
RRIRVRPPRLPRPRPRPDRRPRP | 0.206
RRIRARPPRLPRPRPRPKDNPRP | 0.153
RRIRKRPPRLPRPRPRPPWAPRP | 0.496
RRIRNRPPRLPRPRPRPVIPPRP | -0.462
RRIRPRPPRLPRPRPRPMINPRP | -0.179
RRIRWRPPRLPRPRPRPNEVPRP | 0.0902
RRIRSRPPRLPRPRPRPFMGPRP | -0.216
RRIRHRPPRLPRPRPRPQASPRP | 0.0479
RRIRTRPPRLPRPRPRPNIYPRP | 0.0647
RRIRLRPPRLPRPRPRPTNQPRP | -0.327
RRIRQRPPRLPRPRPRPFTNPRP | -0.0235
RRIRFRPPRLPRPRPRPWQPPRP | 0.0512
RRIRIRPPRLPRPRPRPSLGPRP | -0.245
RRIRNRPPRLPRPRPRPTQGPRP | 0.331
